Measurements from PMC7125119, “An oncopeptide regulates m6A recognition by the m6A reader IGF2BP1 and tumorigenesis”.

Target: IGF2BP1-Flag (recombinant);RBRP-Flag WT (Homo sapiens?;Homo sapiens, UniProt Q9NZI8;C0HM01 1-577;1-71, |)
Test: EMSA; RBRP WT increases IGF2BP1 binding; Pull-down: 1 nmol biotin-RNA on streptavidin-agarose, nuclear extract, 30 C 30 min, immunoblot. EMSA: LightShift kit, 20 pmol RNA, 6 ug IGF2BP1-Flag, 2 ug RBRP, room temperature 30 min, then 0.2% glutaraldehyde (1 ul) on ice 15 min, 6% TBE gel; salt and binding pH not stated
Conditions: protein: recombinant;recombinant; label: biotin 5'; single strand

IGF2BP1-Flag (recombinant);RBRP-Flag WT, sequence (Q9NZI8 whole entry, chain 1 of 2): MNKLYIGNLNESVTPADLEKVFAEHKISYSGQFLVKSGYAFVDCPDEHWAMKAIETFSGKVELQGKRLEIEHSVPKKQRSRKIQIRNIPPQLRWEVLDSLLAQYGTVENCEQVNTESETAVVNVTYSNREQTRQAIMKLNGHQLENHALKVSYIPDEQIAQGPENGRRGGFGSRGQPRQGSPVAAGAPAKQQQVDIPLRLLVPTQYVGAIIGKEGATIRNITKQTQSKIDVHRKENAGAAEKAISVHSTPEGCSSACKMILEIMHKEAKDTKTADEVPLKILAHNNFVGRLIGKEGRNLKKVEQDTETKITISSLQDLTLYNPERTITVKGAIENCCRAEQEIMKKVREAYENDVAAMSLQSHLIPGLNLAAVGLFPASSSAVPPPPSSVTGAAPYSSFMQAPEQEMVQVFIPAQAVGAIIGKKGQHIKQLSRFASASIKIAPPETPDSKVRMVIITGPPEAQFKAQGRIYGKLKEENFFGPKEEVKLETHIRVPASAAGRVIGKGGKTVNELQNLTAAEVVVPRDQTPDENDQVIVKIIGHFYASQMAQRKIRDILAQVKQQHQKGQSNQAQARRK
IGF2BP1-Flag (recombinant);RBRP-Flag WT, sequence (C0HM01 whole entry, chain 2 of 2): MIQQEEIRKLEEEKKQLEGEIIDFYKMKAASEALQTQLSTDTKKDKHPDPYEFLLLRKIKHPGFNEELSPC

## CGUCUCGGACUCGGACUGCU (ssRNA, m6A at 9 and 15) [ss-m6A]
  binding result: binds
